For one molecule, adhesion of EPCs (CD34+ cells) to immobilized collagen I, flow chamber model (2,000 sec^-1), fold against collagen alone and adhesion of EPCs (CD34+ cells) to immobilized collagen I, static adhesion assay, fold against collagen alone results are on record in patent US20100068145A1.

The target of this assay is Collagen I. The experiment in a line: cell-based or functional assay.

B1: GPVI-CD133 construct (bispecific fusion protein: soluble GPVI-Fc chemically conjugated via SPDP to the CD133-reactive monoclonal antibody W6B3C1) (protein, part only; not given: Fc and anti-CD133 antibody chains, human, not shown: a dimerising Fc or GST)
chain, part: QSGPLPKPSLQALPSSLVPLEKPVTLRCQGPPGVDLYRLEKLSSSRYQDQAVLFIPAMKRSLAGRYRCSYQNGSLWSLPSDQLELVATGVFAKPSLSAQPGPAVSSGGDVTLQCQTRYGFDQFALYKEGDPAPYKNPERWYRASFPIITVTAAHSGTYRCYSFSSRDPYLWSAPSDPLELVVTGTSVTPSRLPTEPPSSVAEFSEATAELTVSFTNKVFTTETSRSITTSPKESDSPAGPARQYYTK
modifications: amino groups modified with SPDP (N-succinimidyl 3-(2-pyridyldithio)-propionate), reduced with DTT and conjugated to the SPDP-modified CD133 antibody
With B1, the adhesion of EPCs (CD34+ cells) to immobilized collagen I, flow chamber model (2,000 sec^-1), fold against collagen alone came out at 10 fold and the adhesion of EPCs (CD34+ cells) to immobilized collagen I, static adhesion assay, fold against collagen alone came out at 5 fold.
